# Assay: soluble on expression in E. coli; label from the status in PepcDB or PDB records
row,Sequence,soluble on expression in E. coli
1,MDVGKLESFIVEKMAERKVPGISISIIKDGDVVYAKGFGYRNVEARLPSTPETIYGIGSITKSFTALAIMKLVEEGGLSLDDPVEKFVNIKLRPFGEPVTVHHLLTHSSGIPSLGYAEAFIDGMVGGDNWLPVSTPEETIAFARDMEKWAVAKPGERFFYLNTGYVLLGKIIEKVSGVSYEEYIKKKILEPLGMNRSYFFKEEVEKDKDVAMGYILDKEGRLVPQPFPYGITADGGLLSSVLDLAKYLKMYIERDESIVSKEYIEKMETSYIKVPWEIFGGEGYGYGLIIYPNFLGEKLVGHSGSVGMYTGYIGYIPEKKIGVAVLENSSGYPPSYIAMYALALLLGKNPEKELPFIYRERILKKVEGRYMGYKGTIKFEVKVDGDVVYLRALGRAFTYTIPLFPEVLEEDFIKCYTLSNGRKMYAEFYIKDNKVDLIFERYRLIKS,soluble
2,MAHHHHHHMKKKVELKFLGGLESYLEDKSKNVVTLEIESEKLSFENLIAYIRNHILVDRKDVFADHVLCDGTEFCQVVVDHVERKNYNLNEKAKIKPGIIVLINEYDWEIMHMYEYQIRDGDKLCFLSTLHGG,not soluble
3,MEYSYIPSAALYNNADIFQFFPRNKRLNSHQKSRLDEHARKMAAFMMERQEEYRYYENLANQEQFSDDNGMESGFCSGATSTGQSASTSPAPVQLIPNPFFDPEYVAAKTQSPVKLVTNPFFNPELVEEIKKKSQKRNEKSAPVSA,not soluble
4,MGKEKVHINIVVIGHVDSGKSTTTGHLIYKCGGIDKRTIEKFEKEAQEMGKGSFKYAWVLDKLKAERERGITIDIALWKFETAKYYITIIDAPGHRDFIKNMITGTSQADCAVLVVACNKMDSTEPPFSEARFTEITNEVSGFIKKIGYNPKAVPFVPISGFNGDNMLEVSSNMPWFKGWAVERKEGNASGKTLLEALDSIIPPQRPTDRPLRLPLQDVYKIGGIGTVPVGRVETGIIKPGMVVTFAPQNVTTEVKSVEMHHESLPEAVPGDNVGFNVKNVSVKDIRRGSVCSDSKQDPAKEARTFHAQVIIMNHPGQISNGYTPVLDCHTAHIACKFNELKEKVDRRTGKKVEDFPKFLKSGDAGIVELIPTKPLCVESFTDYAPLGRFAVRDMRQTVAVGVIKSVEKSDGSSGKVTKSAQKAAPKKK,not soluble
5,MSLKIIPYSVNVMDEHGVIIASGEPSRLRQRHEGAILALKENRIVEIDSATANQLKGVRSGINLPISFHEQLIGVVGITGEPEEVRAYAELVKMAAELVIEHMVLIEQRQWDKRYREELINQLILRENSTESLRSMAAYLGIDLAVPRVVLIIELSQPDREALRNVMDYFENHARNHLVTFTEFNELIIIKPITLKEGKWNTRQEMGELQIFKSWAASSGFSRILVGGYFAGETGLHRSLLTARATQAMAKRQKLRSQYIFYHDHALPALLSGLSESWQVQELSRLWLQLVQHDAKGVLQQTLRTWFEHNCDLTQTAKALHIHVNTLRYRLQRCEDITHIKINELKSTLWLYIGMELQAESVSSDKLPLPGREGHHHHHH,not soluble
6,MGSDKIHHHHHHMLMESVVSVFDPDLTHLPAVAHRLQFSDPESEVPLHVHRKGQLILALHGAVTCTAGNEIWIVPPNCGVWIPGGVPHSARATANAQLNYLFVEPEAANLPGSSCTLAISPLIREMVERLAEERADYLADSHAARIARVLLDELADMPRERFNLPISSHPKIRAIADALTAEPSDRRTLSDWAKQVAMSERSLARLLIRETGLTFGRWRQQLHLVVALRELASGEAVQNVAAGLGYESVNAFITMFKKALGSTPAQYFAQRHAPTKAGSGEQNRV,not soluble
7,MGSDKIHHHHHHMKLICEKELCTGCGLCAARCPKHSISLVAEELGHLYPSVDQKKCIDCGLCQKACPSLHDTVCLYPSVAYAAWSKDEEDYRSSTSGGMASVLTHYFLANVGIVYGCTVIPGIEIKHIRIDNLKDAYKLKGSKYVQSSIVDVLSQIRQDVKDGTNVLFIGTPCQVTAVKRMYEEQPDNLFLVDLICHGVPSNKWLVDYIANTLKIKADKVSSIGFRLFEAFSLCVYNDDRLIYKSGDLWTHRYEDLYYNTFIDGFTYRDSCFNCHYAKPERVSDITIGDFWGLGNETDDNYIPKHPYGISCVLPLTEKGKRLISIVKDKLNIYERPVTEAINGNDQLRFPKKKNLRIKFFRRIHKYIGVDAAYKLCVCDKIVKYKIRKIIR,not soluble
8,MLSVIGIGPGSQAMMTMEAIEALQAAEIVVGYKTYTHLVKAFTGDKQVIKTGMCREIERCQAAIELAQAGHNVALISSGDAGIYGMAGLVLELVSKQKLDVEVRLIPGMTASIAAASLLGAPLMHDFCHISLSDLLTPWPVIEKRIVAAGEADFVICFYNPRSRGREGHLARAFDLLAASKSAQTPVGVVKSAGRKKEEKWLTTLGDMDFEPVDMTSLVIVGNKTTYVQDGLMITPRGYTL,not soluble
9,MDDKEKNAEVAKAIKLPDLASYMQVVIKQLEIDKKWSAVHTYTYTLKSVTEFYGGKGTPVPIDEAFTSGRLKEYEEWMRLEGTRNKKTDKKRSDRKHGVPKGLSLNTISTYMRTLKAVYNRLADKKILPYNPKLFDNVYTKVESQTKRALDTKQMNTLLHTDIEKLPKEMQCALAYFLLMFLFRGMPFIDLAHLRKQDVKGKYIVYSRHKTGRQITVRIPKEAMKLIEKFKNMNYDSIYLFPILDKKNAAKEQSQKNGKIKKDKELYMNYLRVLRNFNLKLEKIATLLLPDVKLSSYTPRHTWATLAFHAGVNIGIICKALGHSSIKVTETYLKPFENEKVDIANDELIISVVAHNGEKEVA,not soluble
10,MNEFEDLLNSVSEVNPGDVVTAEVLTVDNGQANVVIDGTGVEGVLTLRELTNDRDADINDFVKAGDTVEVLVLRQVVGKDTDTVTFLVSKKRLEARKAWDKLVGREGEVVTVKGTRAVKGGLSVEFEGLRGFIPASMIDTRFVRNTEKFVGQEFDAKIKEVDAAENRFILSRREVVEESAAAARKEVFSNIEVGSVVTGKVARLTSFGAFIDLGGVDGLVHVTELSHERNVSPKSVVTVGEEVEVKVLSIDEEAGRVSLSLKATTPGPWDGVEQKLAAGDVIEGKVKRLTDFGAFVEVLPGIDGLVHISQISHKRVENPKDVLSAGQEVTVKVLEVNSDAERVSLSMKALEERPAQAEGEKEEKRQSRPRRPRRQEKRDYELPETQTGFSMADLFGDIELLEHHHHHH,soluble
11,MPKGGPSGLSPVYAGIREDLDTLLRAYLQFKSVRFYDYKMMFERRGMVDIFNGRSESSEIIEFNEHLLVQCLSYMEEEACPGMPRSLKERLFGLYSLYTFFFIQQESHVVQIRMNPDCARNFRKFAQFLLVEKIYDAYVHDPCYAKSNQTDEKSHGVPVLANLNDPLCRVKALTEQFDMLGVIHREYSKLKDKFGITGNPLNDPTEILSRVIEKNLKAIEDSAIEKVFDVDQDEQSSVDALSSDGDDEETEKDPDIAENDDNVEETIEPSLPSRKRKRKRRQSKTVPISDPEVLDDLFAREILRDNQPTTSDDSAQRMNVDSKIVPGRKKSRKMSAKKAKINLPRIVKSEQIPPLRGIMKNEDLNNSESCIHENVDIVLTQSDSLKNEIKSEIVALNSSTKTSFKSSRRVSFREKENGELDNTIHEIPRRCHSSDESDEENSDEDPVAESSHRPHLTIQLKPIHEKYETSISMNLIYMKNKEKLISADDFNIFKPVEGAEETFETPFDSLIPEDIDSDDEI,not soluble
12,GMADLTHEFWDRLEDVRSGMLGIKGQGRLIPMSPQTDDDAPGAIWFITAKGTDLAKGVAAGPQPAQFVVSDDGEGLYADLDGTLERSTDREALDEFWSFVADAWFDGGQHDPDVCLLKFTPASGEISITEGGGARFLYEIAKAHLTDETPDMGEQATVTF,soluble
13,MSLNASSISSRFKDLFVTPSIVFDFDGTLAIGHGPVLAYALCVAPEGSKDFLERVRRELRRYDDGQSIYRDGYDIVAKLASELGIDDGTMSVAYGESRKLLGSDLAPVEHVRGIKDILSSLKGHARLVLATNAPENGVHDLLRQWGVADLFDQLHFVVGKPAGLISIISDLQLDGPVLAVGDIYEFDLSPAAQLGADTALVGATATISEAKVSMRGDSIADLPLLAWVSSRVSSEGHHHHHH,soluble
14,DMIVRQAGPADAAAMSAVLHPILTGWNSARSGDAETVLTRYIDDPDRLSCAVACEGERILGFQSLKLARAGNVYDLPAGWGIIGTYVAGDAGRRGIGRALFTETLAAARRAGLAHIDATIGADNAQGLPYYSALGFQTWRELDG,not soluble
15,MSLKSIAKAQNDFTIFKFGDSEIRVINKCGEPWFVAKDVCDALALTNSRKALTALDDDEKGVTLSYTLGGEQNLSIVSESGMYTLVLRCRDAVNKGSVPHKFRKWVTAEVLPSIRKHGEYVKGKKTTVEERTPLRDAVNMLVGKKGLRNDDAYNMVHQRFGIDSIDELSIEQIPLAVEYIHRVVLEGEFIGKQEKSTNELSAKEANSLVWLWDYANRSQALFRELYPALKQIQSNYSGRCYDYGHEFSYVIGMARDVLINHTRDVDINEPDGPTNLSAWMRLKNKELPPSPHHYEGHHHHHH,not soluble
16,MSLSYEYFPGFYDRLMDSELYDEWLEFSADFIGDTSKKVLDLACGTAEFALRLSFLGHQVTGVDLSKEMVAVAKEKVAAAEINLSILEQDMSKLALNQTFDVITCFCDSLNYLETEQALENTIKAVSDHLTPNGLFLFDVHSVFKIDQGFKDYSYGDSDEEISIIWNSFPGEYPHSVEHELTFYILGEDNMYNRVDELHKERTYPITTYKELLKKYGFSKIDVYADFSHENPTNSSERIFFVARKEGHHHHHH,soluble
17,IQRSIERALDFRKEVQRLREESDGWFFDIWQPEAVDKAECWPVAPGEDWHGFKDADADHMYLDPVKVTILTPGMDEQGNMDEEGIPAALVAKFLDERGVVVEKTGPYNLLFLFSIGIDKTRAMGLLRGLTEFKRAYDLNLRVKNMLPDLYAEDPDFYRNMRIQDLAQGIH,not soluble
18,MPSLVIQDGGASIIRAVRPEEFAPQAPGKLLAIGRGVYAFLPDPLPPRLEWSLRLIALLDEARGALGELAGLLRQLPNPYLFIRPFIQKEAVLSSRIEGTQAGLLDVYALEAQVPLFPSPKLREDAQEVLNYIRALERGRELLQEIPLSLRLLKEVHAVLLRGVRGGGRAPGEFRRAQNWIGPPGSSLEEARYVPPPPGPMLEALDALERFWHSDHGLPPLVEIALVHYQFEAIHPFLDGNGRMGRLLITLMLLERGLLPEPALYLSAYFERHRTLYYDLLLGVSQRGAWEDWLAFFLEGVRTEAKDVAERARRLLDLWREWRERYGRKGGSAHILGLLDLLFERPVLTVPLVKDRLGITHAWANRLVQRLEEDGILTPVSERKRNRLYAAKEILEILEEARNA,soluble
19,GAMAEEATFTANFKDTDLKSFIETVGANLNKTIIMGPGVQGAVSIRTMTPLNERQYYQLFLNLLEAQGYAVVPMENDVLKVVKSSAAKVEPLPLVGEGSDNYAGDEMVTKVVPVRNVSVRELAPILRQMIDSAGSGNVVNYDPSNVIMLTGRASVVERLTEVIQRVDHAGNRTEEVIPLDNASASEIARVLESLTKNSGENQPATLKSQIVADERTNSVIVSGDPATRDKMRRLIRRLDSE,soluble
20,MFLTAVRRSSNVLKTFKPLYDRVLVERVAAETKTKGGIMLPEKSQGKVLEATVVSAGAGLRNEKGELVALTVKPGDRVLLPEYGGTKVVVEDKEYSIFRESDLLGVFH,not soluble
21,GMAEPKFTSFTTADFINDVDMELFIDAVEKTAPVWVKEMKSRGLLKFSMNRVWNKGEVFRVVMTYEYKDRASFEANIAYLEDTFGKNPVFLQLVTTAKFTTSRCLVVMEV,soluble

# From the DeepSol protein solubility set
